The values that follow come from US20190119348A1, “PARATHYROID HORMONE RECEPTOR 1 ANTAGONIST AND INVERSE AGONIST POLYPEPTIDES AND METHODS OF THEIR USE” (The General Hospital Corporation, priority 2016, published 2019).

Where a SMILES comes first, the peptide text is derived from it. [ ]: non-standard residue; d: D form. Nle = CCCC[C@H](N)C(=O)O

In one assay the target is T1, endogenous hPTHR1 (Homo sapiens, UniProt Q03431).
T1 construct: Saos-2, in which is endogenously expressed the hPTHR1; endogenous in cells
T1 sequence (Q03431 27-593): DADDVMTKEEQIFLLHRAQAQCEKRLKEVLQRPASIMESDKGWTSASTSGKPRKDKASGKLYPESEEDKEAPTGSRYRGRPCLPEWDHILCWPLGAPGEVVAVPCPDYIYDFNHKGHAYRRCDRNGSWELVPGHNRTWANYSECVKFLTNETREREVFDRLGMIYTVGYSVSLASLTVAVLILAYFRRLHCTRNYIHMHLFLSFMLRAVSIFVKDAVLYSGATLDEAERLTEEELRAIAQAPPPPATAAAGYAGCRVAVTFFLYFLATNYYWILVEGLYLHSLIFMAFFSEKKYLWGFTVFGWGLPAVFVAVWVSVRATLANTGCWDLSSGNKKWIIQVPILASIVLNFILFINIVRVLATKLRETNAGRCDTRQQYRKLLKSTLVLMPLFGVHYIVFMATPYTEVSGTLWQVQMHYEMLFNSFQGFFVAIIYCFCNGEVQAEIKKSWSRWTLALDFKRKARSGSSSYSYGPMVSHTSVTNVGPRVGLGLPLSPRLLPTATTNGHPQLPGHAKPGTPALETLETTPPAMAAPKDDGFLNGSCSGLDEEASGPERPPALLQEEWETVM
Kind of assay: Antagonism of PTH(1-34)- and PTHrP(1-36)-induced cAMP response (GloSensor) in SGS-72 cells. Format: cell-based. As to conditions: IC50 PTH(1-34) (Table 6, nanomolar value), antagonist pre-treatment 15 minutes, PTH(1-34) 0.3 nM. Here is the method: cAMP signaling was assessed in the HEK293-derived or SaOS2-derived cell lines stably expressing the luciferase-based GloSensorTM cAMP reporter ([…] al., Paper presented at: Novel Signaling Mechanisms and Bone Cell Biology 2014; Binkowski et al., Methods in molecular biology. 756:263-271). HEK-293 cells were further transfected to stably express the hPTHR1, hPTHR1-H223R, or hPTHR1-T410P. The cells were seeded into 96-well white plates and were assayed 24 to 48 hours post-confluency. Assays were performed at room temperature in CO2-independent culture media (Life Technologies, Corp., Carlsbad, Calif.) containing 0.1% BSA (CIDB). The cells were pre-loaded with luciferin (0.5 mM in CIDB) for 15 minutes, then PTH peptides were added at varying concentrations. cAMP-dependent luminescence was measured at two-minute intervals using a PerkinElmer Envision plate reader. The time at which maximum luminescence (cps) observed with agonist alone, typically at 10-20 minutes after agonist addition, was used to obtain data from wells containing antagonist with or without agonist, to thus generate antagonist ligand dose-response curves. The resulting cps values were then plotted against ligand concentration using GraphPad Prism 7.0 software and a four-parameter logistics curve fitting equation, which yielded parameters of inhibitory potency (pIC50). Pharmacological properties of the ligands were assessed in cells expressing the PTHR1 and the GloSensorTM cAMP reporter. The assays used GP-2.3 cells, derived from HEK293 cells by stable transfection with the hPTHR1 and GloSensorTM, as well as SGS-72 cells, which are derived from the human osteosarcoma cell line, Saos-2, in which is endogenously expressed the hPTHR1, by stable transfection with GloSensorTM. Binding of representative polypeptides to the PTHR1 was assessed in GP-2.3 cells by radioligand competition methods (FIGS. 1A and 1B, Table 3). […] In Table 5, antagonist assays were performed in SGS-72 cells (SaOS2 cells with stable GloSensorTM cAMP reporter) at room temperature. […] The mean (±sem) concentration of antagonist that inhibited the maximum agonist-induced response observed in the absence of antagonist (at 40 minutes) is reported in units of -log M (pIC50), and the corresponding nanomolar value is shown below each pIC50 value. Data are means of the number of seven experiments. The PTH(1-34)-induced maximum luminescence was 500,000 cps and the basal was 5,000 cps. TMR indicates Lys13 modified at epsilon amino function with TMR. The data are illustrated in FIG. 7A. […] Date are means (±SEM) of the number of separate experiments indicated by n.

Assay [1] concerns the target human parathyroid hormone receptor 1 (hPTHR1) (human) (UniProt Q03431). In words: cell-based or functional assay.

In general, IC50 refers to the concentration that inhibits the measured activity by half. Turning to `CCCC[C@H](NC(=O)[C@H](CC(C)C)NC(=O)[C@H](CCC(N)=O)NC(=O)[C@@H](N)[C@@H](C)CC)C(=O)N[C@@H](Cc1c[nH]cn1)C(=O)N[C@@H](CCC(N)=O)C(=O)N[C@@H](CCCNC(=N)N)C(=O)N[C@H](Cc1c[nH]c2ccccc12)C(=O)N[C@@H](CCCCN)C(=O)N[C@@H](Cc1c[nH]c2ccccc12)C(=O)N[C@H](C(=O)N[C@@H](CCC(N)=O)C(=O)N[C@@H](CC(=O)O)C(=O)N[C@@H](C)C(=O)N[C@@H](CCCNC(=N)N)C(=O)N[C@@H](CCCNC(=N)N)C(=O)N[C@@H](CCCNC(=N)N)C(=O)N[C@@H](C)C(=O)N[C@@H](Cc1c[nH]c2ccccc12)C(=O)N[C@@H](CC(C)C)C(=O)N[C@@H](Cc1c[nH]cn1)C(=O)N[C@@H](CCCCN)C(=O)N[C@@H](CC(C)C)C(=O)N[C@H](C(=O)N[C@@H](C)C(=O)N[C@@H](CCC(=O)O)C(=O)N[C@H](C(=O)N[C@@H](Cc1c[nH]cn1)C(=O)N[C@H](C(=O)N[C@@H](C)C(=O)N[C@@H](CCC(=O)O)C(=O)N[C@@H](Cc1ccc(O)cc1)C(N)=O)[C@@H](C)O)[C@@H](C)CC)[C@@H](C)CC)[C@@H](C)CC` [compound 1954, Nle8, dW12, W23, Y36-LA-PTH(5-36)] (H-IQL[Nle]HQR[dW]KWIQDARRRAWLHKLIAEIHTAEY-NH2; N-terminus assumed), the IC50 at endogenous hPTHR1 was 1.75 nM.

“Nle8, TMR, dW12, C35-bPTH(7-35)-1977 (peptide)”: in assay [1], the IC50 (nanomolar value of the pIC50), antagonism of PTH(1-34)-induced cAMP response, GP-2.3 cells is 2.8 µM and the pIC50, antagonism of PTH(1-34)-induced cAMP response (GloSensor), GP-2.3 cells was 5.55 -log M.

Take “Nle8, TMR, dW12, W23, C37-LA-PTH(5-37)-1975 (peptide)”: in assay [1], the IC50 (nanomolar value of the pIC50), antagonism of PTH(1-34)-induced cAMP response, GP-2.3 cells amounted to 3.61 µM; the IC50 (nanomolar value of the pIC50), antagonism of PTH(1-34)-induced cAMP response, SGS-72 cells was 12 nM; the IC50 (nanomolar value of the pIC50), antagonism of PTHrP(1-36)-induced cAMP response, SGS-72 cells worked out at 10 nM; the IC50, antagonism of PTH(1-34) (0.3 nM)-induced cAMP response, SGS-72 cells was 20.3 nM. In assay [1], the IC50, antagonism of PTHrP(1-36) (0.3 nM)-induced cAMP response, SGS-72 cells worked out at 9.71 nM; the pIC50, antagonism of PTH(1-34) (0.3 nM)-induced cAMP response, SGS-72 cells is 7.69 -log M; the pIC50, antagonism of PTH(1-34)-induced cAMP response (GloSensor), GP-2.3 cells is 5.44 -log M; the pIC50, antagonism of PTH(1-34)-induced cAMP response, SGS-72 cells is 7.91 -log M. Further, in assay [1], the pIC50, antagonism of PTHrP(1-36) (0.3 nM)-induced cAMP response, SGS-72 cells was 8.01 -log M and the pIC50, antagonism of PTHrP(1-36)-induced cAMP response, SGS-72 cells is 8.01 -log M.

As to “Nle8, dW12, W23, C37-LA-PTH(5-37)-1974 (peptide)”, in assay [1], the IC50 (nanomolar value of the pIC50), antagonism of PTH(1-34)-induced cAMP response, GP-2.3 cells was found to be 224 nM; the IC50, antagonism of PTH(1-34) (0.3 nM)-induced cAMP response, SGS-72 cells is 4.39 nM; the pIC50, antagonism of PTH(1-34) (0.3 nM)-induced cAMP response, SGS-72 cells was 8.36 -log M; the pIC50, antagonism of PTH(1-34)-induced cAMP response (GloSensor), GP-2.3 cells is 6.65 -log M.

On to “Nle8, dW12, W23, Y36-LA-PTH(5-36)-1954 (peptide)”, for which, in assay [1], the IC50, antagonism of PTH(1-34) (0.3 nM)-induced cAMP response, SGS-72 cells was 1.75 nM and the pIC50, antagonism of PTH(1-34) (0.3 nM)-induced cAMP response, SGS-72 cells is 8.76 -log M.

Turning to “PEG20-Nle8, TMR, dW12, W23, C37-LA-PTH(5-37)-1978 (peptide)”, in assay [1], the IC50 (nanomolar value of the pIC50), antagonism of PTH(1-34)-induced cAMP response, GP-2.3 cells was 642 nM; the IC50 (nanomolar value of the pIC50), antagonism of PTH(1-34)-induced cAMP response, SGS-72 cells is 21 nM; the IC50 (nanomolar value of the pIC50), antagonism of PTHrP(1-36)-induced cAMP response, SGS-72 cells stood at 13 nM; the IC50, antagonism of PTH(1-34) (0.3 nM)-induced cAMP response, SGS-72 cells came out at 24.1 nM. For the same compound, in assay [1], the IC50, antagonism of PTHrP(1-36) (0.3 nM)-induced cAMP response, SGS-72 cells turned out to be 12.9 nM; the pIC50, antagonism of PTH(1-34) (0.3 nM)-induced cAMP response, SGS-72 cells is 7.62 -log M; the pIC50, antagonism of PTH(1-34)-induced cAMP response (GloSensor), GP-2.3 cells is 6.19 -log M; the pIC50, antagonism of PTH(1-34)-induced cAMP response, SGS-72 cells was 7.68 -log M. In assay [1], the pIC50, antagonism of PTHrP(1-36) (0.3 nM)-induced cAMP response, SGS-72 cells is 7.89 -log M and the pIC50, antagonism of PTHrP(1-36)-induced cAMP response, SGS-72 cells was 7.89 -log M.

As to “TMR-L11, dW12, W23-LA-PTH(5-36)-2004 (peptide)”, in assay [1], the IC50, antagonism of PTH(1-34) (0.3 nM)-induced cAMP response, SGS-72 cells was 2.13 nM and the pIC50, antagonism of PTH(1-34) (0.3 nM)-induced cAMP response, SGS-72 cells was 8.67 -log M.

As to “TMR-L11, dW12, W23-LA-PTH(7-36)-2002 (peptide)”, in assay [1], the IC50, antagonism of PTH(1-34) (0.3 nM)-induced cAMP response, SGS-72 cells was 1.49 nM and the pIC50, antagonism of PTH(1-34) (0.3 nM)-induced cAMP response, SGS-72 cells was 8.83 -log M.

As to “TMR-Nle8, L11, dW12, W23-LA-PTH(5-36)-2000 (peptide)”, in assay [1], the IC50, antagonism of PTH(1-34) (0.3 nM)-induced cAMP response, SGS-72 cells was 3.02 nM and the pIC50, antagonism of PTH(1-34) (0.3 nM)-induced cAMP response, SGS-72 cells is 8.52 -log M.

“TMR-Nle8, L11, dW12, W23-LA-PTH(7-36)-1998 (peptide)”: in assay [1], the IC50, antagonism of PTH(1-34) (0.3 nM)-induced cAMP response, SGS-72 cells was 2.21 nM and the pIC50, antagonism of PTH(1-34) (0.3 nM)-induced cAMP response, SGS-72 cells is 8.65 -log M.

Regarding “TMR-Nle8, dW12, W23-LA-PTH(7-36)-1993 (peptide)”, in assay [1], the IC50, antagonism of PTH(1-34) (0.3 nM)-induced cAMP response, SGS-72 cells is 3.34 nM and the pIC50, antagonism of PTH(1-34) (0.3 nM)-induced cAMP response, SGS-72 cells is 8.48 -log M.

As to “TMR-dW12, W23, C37-LA-PTH(5-37)-1976 (peptide)”, in assay [1], the IC50 (nanomolar value of the pIC50), antagonism of PTH(1-34)-induced cAMP response, GP-2.3 cells is 1.96 µM; the IC50, antagonism of PTH(1-34) (0.3 nM)-induced cAMP response, SGS-72 cells was 18.5 nM; the pIC50, antagonism of PTH(1-34) (0.3 nM)-induced cAMP response, SGS-72 cells is 7.73 -log M; the pIC50, antagonism of PTH(1-34)-induced cAMP response (GloSensor), GP-2.3 cells is 5.71 -log M.

Consider “TMR-dW12, W23-LA-PTH(5-36)-1953 (peptide)”, for which, in assay [1], the IC50 (nanomolar value of the pIC50), antagonism of PTH(1-34)-induced cAMP response, GP-2.3 cells worked out at 160 nM; the IC50, antagonism of PTH(1-34) (0.3 nM)-induced cAMP response, SGS-72 cells was 3.23 nM; the pIC50, antagonism of PTH(1-34) (0.3 nM)-induced cAMP response, SGS-72 cells is 8.49 -log M; the pIC50, antagonism of PTH(1-34)-induced cAMP response (GloSensor), GP-2.3 cells was 6.8 -log M.

On to “TMR-dW12, W23-LA-PTH(7-36)-1991 (peptide)”, for which, in assay [1], the IC50, antagonism of PTH(1-34) (0.3 nM)-induced cAMP response, SGS-72 cells came out at 1.95 nM and the pIC50, antagonism of PTH(1-34) (0.3 nM)-induced cAMP response, SGS-72 cells was 8.71 -log M.
